The results in this text go back to the DeepSol protein solubility set.

This series in a line: soluble on expression in E. coli; label from the status in PepcDB or PDB records.
With “MAHHHHHHMRTSRGFCMSMWDSPAFEHNPLSRYWKRMMKQNGETLTAQSIPRHIHGYIEASCPRTEGLVRWFPYKKEITVDGRYVPTISDAIYSYYFPRELNDDERVKYVAIKTGRSELEVAEEVFLMRKMKLFVAQLLRNKLRSRPLRMPEGVDYSGIERRYTLGISRVAQAMGMSMYGTQSYDPVIVYSPYCDIGDCIDCICTKQLRTATQYLLCEVAVHRGIARSRMTDVTSEPKEPLSHVEPCLFEFIKLRLAILALVAKQEHYVVDHLFDGGHRYGGCLIHLFPSPLDPEIIDHEVNHIELDLDLAQKWMKHYYDHYVAPRRSG”, the “soluble on expression in E. coli” value is listed as “not soluble”.

As to “MAHHHHHHMSATPSNVLLGLFDGYMSHKRDQLTSETKLGGTPTYFPPLSDADKAQIRRWTSCGVCGHAMSLLTQAYSPLPTAPASRPHHRMVYVFGCNSGYCSRQPTSSMVAFSVQVDQEDEQALAENAEEEDEDEVIETGPLLPSELPEAVLPPCYVYIDAEPSKEAVVPTDIERELIKMAEENARSTVTDEELQQLEQTVDLKDTKTDYYYEKFRSRVARAPNQVLRYYERTVAAAAATSASLRAKDVKPIFMNPDKVKAMVTIPACACCGSTQTAELQVMPTSLYYLHVSEYTALARADAAAMAAPAGTLAAASTHSNVVDTQSPVASPSASTTTCKASALSGAATGTEKAIPANVDDGCDFGTITVYVCAKDCAARQHGVVLRRETLCVEEAPTMRDEERAGKADAAKAGTDGATHKVTLRELLHGNGEGGEDMEDDDEGHIDDEAVSTA”, the “soluble on expression in E. coli” value is “soluble”.

Turning to “MAHHHHHHMSDAPHRQSSTPASSFLPPEPLCVADILSELLPFLLAAPQPRDGCPPSSSAQEPAESPVLLIPPTVASEHRVQVSIRGRRYETALEVALTYSLFFFVFFHWPFSEEDESSDAAGCASDVAHVKRAPRSVGDAVMAAASARDLPKEAHLLRHYTRVVEPVLRVFLDHWAAPLDAAAAAQGEGESAARAETAEAGDAARLPLLPPLPHPVRIAYDASTRVWKFEFAARLTAGAAAEARSGRQCDDSSAAVSLAAADGCAAVATDKLNNSPFLLLQSEYMGLLLVFLRRCAKVRAERRAAGEGAAACALAPYPSLPIRWEEMNYDEQLSVVQLIRRFGVVSLARTYTRPTAPETTSLYIGEEAAAATARVKVEGDACSLRARASESMGKQQQKIQQAASVAVDTAEVVKKERCINEDDFDGLVLSAKGCARCGMAEHSTEECHF”, the “soluble on expression in E. coli” value is “soluble”.

As to “MAHHHHHHMSDEGFEDLFILDTDPEELYEELGPIGVGNYGSVIKARNRHTQEITAIKLVLLVDKDERDFVQREISILKHCRHPNIVHYYGAHKSLSKLWIVMEYCEGGSIDMVYKVLRHPLPEPLIAYVCRQVLLGLQYLHANRKIHRDIKGGNILLTRDGGVKLADFGVSTELSHSLSRRNTFVGTLLWMAPEAILELDYDEKADLWSLGITLIEMAEGAPPYIDTHPARALFMIPKMDPPSLQDKERWSPQMTLFLKRLLTKDHNARPTATTMLNDPFVLPENIGTQEQLKAVIDEVLAKKASIDPQRMRDYTDSSATFVERTSSDGGGGDDHSTDSRDEVQPHLTAKGLTNAPANSIEALDGAGTHLFFQDGTLLPLPMLYTQDISFDELCVGEELNGPFSLPVPSVESLLVPPEQQSTACHGGEALAHTMHVTAKLKEMLYYHKQLPYCRGLTDAEAAKSREMQLKYGSVLKSVYRL”, the “soluble on expression in E. coli” value is given as “not soluble”.

“MAHHHHHHMSEINIIKAFGILLCRLKKYNPVTTGDINKFEFLFLKASYADKHWTPPKGLHENNESGLETAVRETLEETGINKDKYKLLNYQKTLKYNVKDKPKETTYYLAMLLNNEENVILSDEHTDYKWIGSHESDTYNLPESLADLLKEAEEFLNKEQL”: the “soluble on expression in E. coli” value is given as “soluble”.

As to “MAHHHHHHMSIPLENWGQLKLSVAKPELKSEDGGDVKRDECVLELLALPKGKAKDNPNYVPRPILSIPISAIASASGTTKNDVSLTMRPAATAGAEDLELRSIRFAVPNVCVGYEETEMAGKVILQDIQSSMMQYQEQFLQRHGSGGQGGKLLALAAMGSGQAKHTDEVVVATFDDVLLSYPSGKYKIVISNYNVVLEDKKKGTSSGLLSFSLSEIQNLFLCDVPVYFSPTEEVDANSLPQYVVLILKNPLKIRSTAYNHVVISCPAGLTLDEEHPWRCELKTQDEINKTLQLPPSKEGEEPPLVPTMSGRVSDILTRTFKAIAKVPAYGGINKEYKSVLTSHSQSSMRCLFHGAEGLLYIVNSGFLYLHRPATRILFNEVARVELDESESGQATFQLTVFATGAKGDDKYVFSGIAKEEKNGLLSYLATKVKVVHTGGDAMESDDDDEKDDTSDEDESDDSDYDDSDTEDDDSSDDGGDHDSSRKRKREDKKHEKDKKHKKDKKHKKDKKHKKDKKHKKDKKHKKDKKHKKDKKHKKDRKHKKDKHEKSDA”, the “soluble on expression in E. coli” value is listed as “soluble”.

As to “MAHHHHHHMSKDGNCGGCSAPWGKMPQSPMTPLSDARDSPTAPLCSHSAFSKVNKESSEEESFVVGKYQTSMCPICLESFTHENPAVVVGCGHSFHLQCVEDWRQRSPICPVCMIVLRGDGLPMHTGRQSQRPSEVSPSQRKGRATTSTMTSASSGTTFMVTAGGVHGRVLDTKPPSVVNASAGVEGSGSVVDVGNVSFLSRVRRCMKFCCTCEDDL”, the “soluble on expression in E. coli” value is recorded as “not soluble”.

For the sequence “MAHHHHHHMSLNLAEAADERSQREMEKYLVERVAGQGTFGTVQLAREKNTGVNVAIKKVIQDPRFKNRELQIMQDLSRLRHPNIVLLKNYFYTVLGDHRHNDVYLNVVMEFVPDTLHRVCRAYYRRLASPPMILVKVFMYQLLRGIACLHLPAVNVCHRDIKPHNVLVDESTGDLKLCDFGSAKKLSPSEPNVAYICSRYYRAPELIFGNQYYSTAVDVWSVGCIFAEMLLGEPIFCGENTSGQLREIVRVLGRPSREELHKLSTSNVELNVPTNKSTPWEDVFKRPLPAEVYDLCAKIFKYLPEQRITPLEAICHPFFDELHDATVKLPSGNALPAHLFTFLPEEINEMTEAQRSQLVQK”, the “soluble on expression in E. coli” value is listed as “soluble”.

Regarding “MAHHHHHHMSQLKIKRGNFLFTSESVNEGHPDKICDQISDAILDSCLREDPYSKVACEVCAKKNYIFIFGEITTKAKVNYDKVTRDVLKHIGYDDESKGLDYKTAEIKVSIDEQSPDIAQCVHENRSPELIGAGDQGIMFGYATDETENYMPLTHHYATLLGKRLTEVRKLGILPYLGPDGKTQITIEYKNKGSCGGHLEPLRVHTVLISTQHAEDIKYEQLKTDLMENVIKYVIPEKLLDNETLYYLNPSGKFVLGGPAADAGLTGRKIICDTYGGWGAHGGGAFSGKDASKVDRSAAYYLRFIAKSLVANKFCRRVLVQASYSIGIANPISLNVNSYGTVSTGYTDYDLEQIILRNFDLRPGFIIQELKLTEPVFSKTSAYGHFGREGDTFTWEKIKDLSHEKNALKN”, the “soluble on expression in E. coli” value is “soluble”.

In the case of “MAHHHHHHMSSITGAAYSSPEYTHCIRDSRFRHNVYEPEADTFLFLDALDKDAELLRSIRPDRCVEVGCGSGAVITHLRCLLMPSVAAAATQELEAETPELCCGASGIRSAVGGPMFCAVDVNPLALEATAITWTETLLKYFRETVLAAFYERIFQSAVPTSLAAPVVLSAEGVSPPLTRVDADDPTSSALSASTFCLHRFHGDLLNALPRGNSAPALFDVVLFNPPYVPTSLKELQDAITQRDVITTAWCGGPRGRVVLDRFLRQLPSVLSRRGVCYVVLIKENNATDVVAFAQAAFREHLRCSGTETVKDEDDVLEASEVAARYTGEHLSVYRLRYVPRFQTP”, the “soluble on expression in E. coli” value is reported as “not soluble”.

Consider “MAHHHHHHMSSSAEEKEAKKQEELRLAGSDSEGVRAAVKAQRELKKKRDALRKVQKKIRSGGSDAEVAAAIEQEAALLAEIGHLEALRGASSAPSTAHVAAASFTSTPATAAASPGALVTVATNKSSGAKAARSGEPAKEITAEERAASAKRLHDLVQGAMDANRLKCLHVLPRDAVVHPRIAEVAVLMEQMLLVGGSARALALISAFRELSRTTTVLAVPSLNEVNTTAFEKLIQINFDFVRRKREASAGMRHVKDVLVRRFVALRDEVIHPKPNMVDLIKDLGGPREVTLKILDAIEAELKMSFKSIVEDRSLPYVSSSDTILVFGRSSLVEYILLSRSRDPQCKPKRVIVIDSAPLFEGRQLAEKLSSAGIDVTYGLITACCTLMPKCTRVFMGASAVLQNGDMFGRCGMALVAACAKLFRKPVLCFSESYKFVPEVWVGNLAQNTKLADMRPAAEVHGSDTGTHSPLVYPTPPTLSPPQLRASGGWGTPARGADFLTRSGGGGAVPFSSSASGYLYDLTPASYIDMIICEMGCLHTSAIVAAIKDREGRDTSQLLNLVRG”, for which the “soluble on expression in E. coli” value is “soluble”.

For “MAHHHHHHMSTHIERLQSEDEVAFKLKGEIAAIEKEIKSWFIKRRLNMELNYSLHNLFTNYNIVGLSINKKIDLKEKMLWHDIVNGKPTLEDTLSLDAKEYKADVYRKMWENSTTTDNPCRLVGSIFFRCLKGNYQLTEQEREGTCMHSFLNFTHCRKALKLQQANNIRTALTKQSAEDTQAKALFERRSALLGKLTGSAP”, the “soluble on expression in E. coli” value is “not soluble”.

Turning to “MAHHHHHHMSVFEARQKVYATLHGTFHAAIVQEVAVDAETGQYLYYVHYVEQDSRMDCWLPASELKERRQGRQASKQQTNKSGGGGITTRGQSRLVAGKEDEVSRGPNTPTSSAKRSNLQNCVKVSTTRARKDSSFFSRPKNIHSICMGPYEVATWYFSPYHLARPQIQQGLKQNAELFSGKMELQLRQENKKSAFQTAVVPTSFVLHICPFCLHPFTAHEDVVRHLQIVCPRHPPGNEIYRDPVRQLVVLEMDAVVEPVFCEHLALLSKLFLEHKALDHDMTPFLFYVLCAVQPHGLEVLGYFSKEKQSPEMYNLSCILVLPQFQSRGIGRFLIELSYELSRREGRIGSPEKPLSDLGEKLYLGYWGDVIVSALARAIEENHCATLEYLVQATYLSQADVLRTLQYLRLLNGTQIVVSEESIERCYSRRLHRERSGKNYVFYPHLLSWSPHMYYELKEQDVAPPIYVTQSEELEQNAASKGQRVF”, the “soluble on expression in E. coli” value was “not soluble”.

On to “MAHHHHHHMSWRVSCKTALLDELFTYIAGKTDANTLQKECVLALPQLETLAKMLGFSLDDMSMYRLAWSWSCEAPLCIRKSEFVNGMNAICSGVKLSATATSSTCSASPVKSPKKEFEPILLALRNHVETLDGALRGDVTKFRHFYRFIYKWVQSPLTMERNMGQVGMSIETAVELWRMLFPHYREFKRLDDWITFCMSKKLFPHGIISRDLWEQLLEFTFVTDYSKYDVSDAWPSAMDDFVEYVKSKV”, for which the “soluble on expression in E. coli” value was “not soluble”.

Consider “MAHHHHHHMTDIAHGSRYDRDAAISTAAEQVAAGQYAENKPRAIMFVNKRPVEIIPQEENVLEVLEREGITVPKFCYHPILSVAGNCRMCMVQVDGTQNIVVACSTVALPGMSIITDSRLVRDAREGNVELILINHPNDCPICEQATNCDLQNVSMNYGTDIPRYREDKKAVEDFYFDPQTRVVLNRCIHCTRCIRFLNEHAQDFNLGQIGRGGLSEISTFLDELEVKTDNNMPVSQLCPVGKLYMGDADENNDIVRELEAAGATA”, for which the “soluble on expression in E. coli” value was “not soluble”.

As to “MAHHHHHHMTEPVRILVRRDEITVDSIMQYFVAVDEEKNKFETLCDLYDTLTIAHAVIFCNTRKKVEQLAKKMRKEKFSVSCMHGDMPQAERDEIMRNFREGKSRVLISTDLWSRGIDVEQVSLVLNYDLPFSREQYIHRIGRTGRMGRKGLAISFVKHDELRLLRDVEQFYATQIEELPANIADQF”, the “soluble on expression in E. coli” value is given as “not soluble”.

Turning to “MAHHHHHHMTESTHLIDAGCFISQMNELVLIDPLYMNYVITNYFNYLINDKNELLPKESLNGVYFENAKPGLWSSFAIKEKNIFLPNSQKMEQNMIDLGIDKNYGNEIITSFACFNNTEFMHEYLTVEKLNELKWEKFESNINCIGNHNNGNIYKSQSKEEDKPINFSNYFTNILTVESGQVGLFCTESIKNCTNALLEKYEIYDIKNKEELDNFFNKNMNDLYPWYNKICNLTLSSSITIIDYIDMPLGSVCMSGSDCVSNYLCEVVKDDITGEIWAIRVNFFNPFK”, the “soluble on expression in E. coli” value is reported as “soluble”.

Consider “MAHHHHHHMTEYEEKERKTSLAALRRFVKHCGPTRFTFITRIPLSRNTNQVNGTLLLENGDLTVCAQDMKANIADIREDIASFSVPQHQDFIRAFEEAKNMLKNELAALQEHKSILMVQYEMARP”, for which the “soluble on expression in E. coli” value is on record as “not soluble”.
